Source: the supplement of paper PMC9170038

Test system: MS2 coat protein
Assay: apparent KD of MS2 coat protein; designed switch direction (-1 OFF switch, 1 ON switch): -1; higher = weaker reporter binding
How it was run: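 SNAP-549-labelled MS2 coat protein was titrated, doubling from 0.7 or 1.5 nM to 3 µM, over designed RNA switches transcribed on Illumina chips by stalled E. coli RNA polymerase. Runs were done without input, with 200 uM small-molecule ligand, or with an oligonucleotide input. Apparent KD is the per-design median over clusters of curve-fitted normalised fluorescence.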

[1] = input ligand: microRNA oligo, concentration not stated
[2] = Eterna round: R95, input ligand: microRNA oligo, concentration not stated
[3] = Eterna round: R95, input ligand: FMN 200 uM
[4] = Eterna round: R95, input ligand: none

Sequence	apparent KD of MS2 coat protein (input ligand: FMN 200 uM) [µM]	apparent KD of MS2 coat protein (input ligand: none) [µM]	also measured
UGUCAGAUGGUAGGAUAUCCCUAUCGCGUGUCCCUUUCCUAACAUGAGGAUCACCCAUGUCGGUGGGAGAAGGGCCGUAUGGUG [salish99_ExNG02_R04_036] (Eterna round: R96, puzzle: Exclusion NG 2)	0.0157	0.0154	apparent KD of MS2 coat protein [1]: 0.0136 µM
AAUUAGCAAGCGAGAUCCCACAUGAGGAUCACCCAUGUGCUCGUCUUAUAAGGUACUGUGACAAAAGUCACGGUACC [Mat - Sensor, turn-off var - Eli Mod - D18] (Eterna round: R97, puzzle: Sensor, turn-off variant 1)	0.0179	0.0181	
CUUUUGUCAGGAUAUCGUGCAUACAACGAAAGUUCUAUGUGCGAGAAGGGACAUGAGGAUCACCCAUGUUACGG [Omei Ex4 A6] (Eterna round: R97, puzzle: Exclusion 4)	0.175	0.677	
UGAUCUAGCGGAGGAUAUACAUGAGGAUCACCCAUGUAGAUAACAUGACCGUAGUCGUGUAUUGUGUAGAAGGCCGCUAGAUCU [JL ENG2 3.66] (Eterna round: R96, puzzle: Exclusion NG 2)	0.0408	0.0188	apparent KD of MS2 coat protein [1]: 0.0143 µM
UGAAACCUAGGAUAUACAUGAGGAUCACCCAUGUAAUGUAGUAUAGUAUAUGUAAGAUGUAGAAGGAGGAAUGU [LRO-Excl05-27-Smart Aleck] (Eterna round: R97, puzzle: Exclusion 3)	0.0309	0.0349	
AUAAUGUGAGGAUAUCGAGACUACUGCUUCGGCAGUAGUCUCGAGAAGGCACAUGAGGAUCACCCAUGUGAUCA [E4/2-A1] (Eterna round: R97, puzzle: Exclusion 4)	0.0566	0.685	
UCGGCGCGAGGAUAUGCGGUUUGUGCUUUGGGCCCUGGCGUACAUGAGGAUCACCCAUGUAGAAGGCGUGUUGC [Apr-15 SS2-49] (puzzle: Exclusion 2)			apparent KD of MS2 coat protein [2]: 0.0179 µM
UAAAAGACAGGAUAUACUAACAACGACUUGAGGAUCACCCAAGUGGUAAGAGUCGAUCAUGUAGAAGGGUUAAAAC [Atsoce] (Eterna round: R97, puzzle: Exclusion 5)	0.0743	0.028	
AGUGUGAGGCAGGAUAUGCAAUUUGUAAGUAAUGCAGAAGGGUCUACAUGAGGAUCACCCAUGUGUGCGGUUGA [Ex6 #11] (Eterna round: R97, puzzle: Exclusion 6)	0.447	0.246	
CCGGCUGCUGUGAGGAUAUGCCUGUGGGUGCGUGGGUAGAAGGCACAUGAGGAUCACCCAUGUCCUGCGGUCCC [salish99_bmx4_r4_113] (Eterna round: R97, puzzle: Brourd's mod of Exclusion 4)	0.0639	0.066	
UGAUCACAUGAGGAUCACCCAUGUCAGGAUAUCUACAUUGAAGCUUCGGCUUCAAUGUAGAGAAGGGAUAUAAU [E1/5-B1] (Eterna round: R97, puzzle: Exclusion 1)	0.203	0.0828	
UGGGUCACAGGAUAUACAUGAGGAUCACCCAUGUCGUAUUUCGUGGCGGAGAGCUCGAGUAGAAGGGUGCAUCC [Malarala] (puzzle: Exclusion 3)			apparent KD of MS2 coat protein [2]: 0.0963 µM
AGUAACCGUCACGAAAGUGAUGGUUACACAAGCAAAUGUACAUGAGGAUCACCCAUGUCCUCAUUUGUUCGUCUUAU [Sensor 3 - 47] (Eterna round: R96, puzzle: Sensor v3, turn-off variant 2)	0.101	0.104	apparent KD of MS2 coat protein [1]: 0.305 µM
AAAAAACAAGGAUAUACGGAUGAAGAUUGUCUUAAUUUUUGACAUGAGGAUCACCCAUGUAGAAGGUGUUAAAA [JR_Exclusion2_Sub016] (puzzle: Exclusion 2)			apparent KD of MS2 coat protein [2]: 0.158 µM
GAGGCUAAAGGAUAUACAUGAGGAUCACCCAUGUGGAGGAAGGUUAGAUGAGGAGAAGGUAGAAGGUUAGGCGG [JR_Exclu3_Sub094] (puzzle: Exclusion 3)			apparent KD of MS2 coat protein [2]: 0.0311 µM
UAUUUAAUUAACAAGCUUUACAUGAGGAUCACCCAUGUGAUCAUGCUCGUCUUAGGUACAGGCUUCGGCCUGUACCA [Stov1/6-B2] (Eterna round: R97, puzzle: Sensor, turn-off variant 1)	0.0518	0.0559	
GUUAAUUGUCACAUGGGUGACAUGAGGAUCACCCAUGUCACAAGCUUUUUGCUCGUCUUAUAAUUAACCCAUGUGAC [Stov1/12-A2] (Eterna round: R97, puzzle: Sensor, turn-off variant 1)	0.0147	0.0139	
CUGAGUAGUCAGGAUAUGCUGUACAAAAGUACAGCAGAAGGGAUUACAUGAGGAUCACCCAUGUGUACUUCAUG [)mei Ex6 B20] (Eterna round: R97, puzzle: Exclusion 6)	0.401	0.184	

Sequence	apparent KD of MS2 coat protein (input ligand: FMN 200 uM) [µM]	apparent KD of MS2 coat protein (input ligand: none) [µM]	also measured
GGUUGGCGAGGAUAUACAUGAGGAUCACCCAUGUGAGAGAAACAAGUGAGGAAGAAAAGUAGAAGGCGCUGACG [salish99_ex3_r3_023] (puzzle: Exclusion 3)			apparent KD of MS2 coat protein [3]: 0.112 µM; apparent KD of MS2 coat protein [2]: 0.0881 µM; apparent KD of MS2 coat protein [4]: 0.0371 µM
CGCAAAAGGAAGGAUAUGCUAGACGAAAGUCUAGCAGAAGGUCCUACAUGAGGAUCACCCAUGUGUCCUAUGCG [Mat - Exclusion 6 - Eli Mod - D11] (Eterna round: R97, puzzle: Exclusion 6)	0.0631	0.0466	
ACUGUAGAAGGAUAUGCUUCGACUCACAUGAGGAUCACCCAUGUCUUCGUGCAGUCGUCUGCAGAAGGUCUCCAGU [EX5 C.7] (Eterna round: R97, puzzle: Exclusion 5)	1.05	0.956	
AUUAGCGUAGGAUAUUAGUACAUGUACAUGAGGAUCACCCAUGUGAGGUGAGUCUUAGAUUAAGAAGGGCGAAGAA [EX5 #34] (Eterna round: R97, puzzle: Exclusion 5)	0.309	0.704	
AGUUCACAUGAGGAUCACCCAUGUGAGGAUAUGGUUUCGCUGGCCGUAGCCAGUGGAACCAGAAGGCGCAUGAU [Mat - Exclusion 1 - JL Mod - D14] (Eterna round: R97, puzzle: Exclusion 1)	0.0386	0.0345	
CUGUUUUUCGCAGGAUAUGCUCCUCCAUUAUUUGCAGAAGGGCGUUGAACAUGAGGAUCACCCAUGUAUGGAAAUGACUAUUGC [JR_ExcNG1_Sub068] (Eterna round: R96, puzzle: Exclusion NG 1)	0.0221	0.0182	apparent KD of MS2 coat protein [1]: 0.0149 µM
AAGAAACAUGAGGAUCACCCAUGUGAGGAUAUGAGAAAGAAAAGAAAAGAAAGAAGAAUCAGAAGGCACAAAGG [salish99-ex1_r3_032] (puzzle: Exclusion 1)			apparent KD of MS2 coat protein [3]: 0.117 µM; apparent KD of MS2 coat protein [2]: 0.0777 µM; apparent KD of MS2 coat protein [4]: 0.116 µM
GGGCCCGGAGGAUAUACAAUCCCGGGCCGAAAGGUUUGGGUACAUGAGGAUCACCCAUGUAGAAGGCCGGGCCC [-40.9, -38.2 kcal A 24%, 5b bis,0] (Eterna round: R97, puzzle: Exclusion 2)	0.0291	0.0179	
AGUAACCGUCACGAAAGUGAUGGUUACACAAGCAAAUGUACAUGAGGAUCACCCAUGUCCUCAUUUGUUCGUCUUAU [Sensor 3 - 47] (puzzle: Sensor v3, turn-off variant 2)			apparent KD of MS2 coat protein [3]: 0.0835 µM; apparent KD of MS2 coat protein [2]: 0.39 µM; apparent KD of MS2 coat protein [4]: 0.0875 µM
UGCGGUGAGGUAAGGAUAUUUGGGCAAUUACGCCCGGAGAAGGUACAUGAGGAUCACCCAUGUGCAGUAAGGCU [Eternabot (L2) Solution 18] (Eterna round: R97, puzzle: Brourd's mod of Exclusion 4)	0.122	0.0269	
CUUUUGUGAGGAUAUCAGUAGUAGAACAAUAGUACUACUACUGAGAAGGCACAUGAGGAUCACCCAUGUACCUC [Fiskers Ex 4 Super stable 44 mod 3] (puzzle: Exclusion 4)			apparent KD of MS2 coat protein [2]: 0.0188 µM
UUAUUACAAGCAAGAUCCCACAUGAGGAUCACCCAUGUGCUCGUCUUAUAAGGUACUGUGACGAAAGUCACGGUACC [Sensor 3, v1 - 100] (Eterna round: R96, puzzle: Sensor v3, turn-off variant 1)	0.0263	0.0246	apparent KD of MS2 coat protein [1]: 0.547 µM
GUGACCAUAGGAUAUACAUGAGGAUCACCCAUGUGCAAGUCGGAAGACCUGCGGUCAUGUAGAAGGAUGUAAUU [EX3 A.19] (Eterna round: R97, puzzle: Exclusion 3)	0.0183	0.0209	
CAGACACAUGAGGAUCACCCAUGUAAGGAUAUGAACUGUGGUAACGGAGCCAGCGGGUUCAGAAGGUGCGUGAC [Eternabot (L1) Solution 19] (Eterna round: R97, puzzle: Exclusion 1)	0.0779	0.0914	
ACAUGUUGCGCAGGAUAUGAGACACAUGAGGAUCACCCAUGUGGUUACAUGUCUUACCAAGCGUCUCAGAAGGGUGUGAACAUG [Ex NG2 #33] (Eterna round: R96, puzzle: Exclusion NG 2)	0.0364	0.0247	apparent KD of MS2 coat protein [1]: 0.0203 µM
CAGUACAGAGGAUAUACAUGAGGAUCACCCAUGUGUUUCAGGUACGAAAGUACCGAAUGUAGAAGGCUGUACUG [jl-ex3-4.25 salish99 mod] (Eterna round: R97, puzzle: Exclusion 3)	0.244	0.0256	
CCUCAACAGUAGGAUAUCAUAAAACUAUUGUGAUGAGAAGGACUGACAUGAGGAUCACCCAUGUUAACGUGAUA [Exclusion 6 - 5:a] (puzzle: Exclusion 6)			apparent KD of MS2 coat protein [2]: 0.0174 µM
